Experimental data: patent CN116355095A

Key:
[1] = target: T1, CHO-K1-T1001细胞表达的人TIGIT (human) (UniProt Q495A1); test: cell ELISA on fixed CHO-K1-T1001 cells; reference Ref1
T1 sequence (looked up): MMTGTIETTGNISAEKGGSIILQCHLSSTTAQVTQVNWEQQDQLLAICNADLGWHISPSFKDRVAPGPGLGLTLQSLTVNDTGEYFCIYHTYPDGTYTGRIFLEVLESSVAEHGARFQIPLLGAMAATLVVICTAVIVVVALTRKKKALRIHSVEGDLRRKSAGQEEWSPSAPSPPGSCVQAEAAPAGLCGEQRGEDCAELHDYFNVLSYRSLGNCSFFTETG

人TIGIT-hFc (human) = 人TIGIT-hFc (human) (UniProt Q495A1); test: blocking ELISA: Bio-CD155 on coated TIGIT-hFc; reference Ref1

B1: IF091 (鼠源单克隆抗体mab22) (antibody, V domains shown)
VH: EVKLVESGGGLVQPGGSLKLSCVASGFTFSSYTMSWVRQTPEKRLELVAEISSSGGSTYYPDTVKGRFTISRDNAKNTLFLQMNSLKSEDTAMYYCARPGLGAWFAYWGQGTLVTVSA
VL: DVLMTQTPLSLPVSLGDQASISCRSSQSIVHNSGNTYLEWYLQKPGQSPKLLIYKVSNRFSGVPDRFSGSGSGTDFTLKISRVEAEDLGIYYCFQFSHVPRTFGGGTKLEIK
B1 showed a fold better than Ref1 (结合活性) [1] of 1.73 fold and a fold better than Ref1 (阻断活性) (人TIGIT-hFc (human)) of 1.83 fold.
